The target of test [1] is T1, Recombinant human P-selectin/Fc chimera (rhP/Fc), not conjugated, adsorbed on microtubing (human, UniProt P16109 42-771).
T1 construct: Microtubing pre-incubated with rhP/Fc at 60 ug/ml in PBS for 2 h, then coated with non-targeting nanoparticles; Fc part of the bought chimera not given
T1 sequence (looked up): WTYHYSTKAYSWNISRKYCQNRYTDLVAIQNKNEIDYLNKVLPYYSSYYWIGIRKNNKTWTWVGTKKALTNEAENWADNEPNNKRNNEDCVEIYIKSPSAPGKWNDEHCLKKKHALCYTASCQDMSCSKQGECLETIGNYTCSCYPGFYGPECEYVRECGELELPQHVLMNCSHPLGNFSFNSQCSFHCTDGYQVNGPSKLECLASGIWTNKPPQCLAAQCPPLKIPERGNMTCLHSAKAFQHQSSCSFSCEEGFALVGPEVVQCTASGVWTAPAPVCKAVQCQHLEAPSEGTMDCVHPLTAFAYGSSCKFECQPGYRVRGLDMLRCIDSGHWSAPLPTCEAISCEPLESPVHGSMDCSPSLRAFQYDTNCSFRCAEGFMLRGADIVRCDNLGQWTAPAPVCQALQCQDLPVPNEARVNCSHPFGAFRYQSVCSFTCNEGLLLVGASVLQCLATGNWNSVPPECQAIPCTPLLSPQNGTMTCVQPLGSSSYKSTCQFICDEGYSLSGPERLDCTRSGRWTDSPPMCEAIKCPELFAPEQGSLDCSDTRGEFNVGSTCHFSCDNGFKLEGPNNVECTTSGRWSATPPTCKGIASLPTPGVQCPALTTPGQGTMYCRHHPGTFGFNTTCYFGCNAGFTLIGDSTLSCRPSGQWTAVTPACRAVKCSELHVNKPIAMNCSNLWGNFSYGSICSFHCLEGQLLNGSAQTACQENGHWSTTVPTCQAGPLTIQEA
Nature of the test: perfusion of HL60 cells through rhP/Fc coated microtube.

For test [2], the target named is T2, Recombinant human P-selectin/Fc chimera covalently coupled to DSPE-PEG2000 maleimide and inserted into … (human, UniProt P16109 42-771, sulfhydryl groups introduced at primary amines with Traut's reagent (2-iminothiolane) and linked to the maleimide group of DSPE-PEG2000; positions not stated).
T2 construct: Bought rhP/Fc (R&D Systems); also called rhP/Fc-DSPE-PEG2000 maleimide; PS-DSPE-PEG NP; Fc part of the bought chimera not given
T2 sequence (looked up): T1 sequence (looked up)
The experiment in a line: perfusion of HL60 cells through nanoparticle coated microtube, microscopy. As to the method: P-selectin nanoparticles were coated onto the surface of microrenathane tubing for 2 h at RT, and then perfusion experiments conducted. (a) and (b) were taken before perfusion, (c) and (d) were taken after perfusion but before the cells were released. (e) and (f) were taken after the adherent cells were released from the microtubing. In (g) and (h), HL60 cells were perfused through the P-selectin coated tube. In (i) and (j), cells were pre-incubated with anti-PSGL-1 for 1 h at RT and then perfused through the P-selectin coated tube. In (k) and (l), the perfused cells were MCF7. In (m) and (n), the P-selectin nanoparticles were incubated with anti-P-selectin for 1 h at RT and then applied to the microtube coating. In (o) and (p), P-selectin was replaced with IgG to construct the coating nanoparticles. The pictures were taken after cellular perfusion but before the cells were released from the surface. [III]. Nanoparticles alone could not (q, r, s) but P-selectin nanoparticles could (t, u, v) deliver Cy3-siRNA into HL60 cells under rolling conditions in the microtubing. q and t were taken in epifluorescence mode, r and u were taken in brightfield mode, and s and v are the merge of q and r, and […]. TRITC represents Tetramethyl Rhodamine Iso-Thiocyanate filter. […]

B1: P-selectin glycoprotein ligand-1 (PSGL-1) on HL60 cells (receptor, UniProt Q14242 42-412, looked up)
chain: QATEYEYLDYDFLPETEPPEMLRNSTDTTPLTGPGTPESTTVEPAARRSTGLDAGGAVTELTTELANMGNLSTDSAAMEIQTTQPAATEAQTTQPVPTEAQTTPLAATEAQTTRLTATEAQTTPLAATEAQTTPPAATEAQTTQPTGLEAQTTAPAAMEAQTTAPAAMEAQTTPPAAMEAQTTQTTAMEAQTTAPEATEAQTTQPTATEAQTTPLAAMEALSTEPSATEALSMEPTTKRGLFIPFSVSSVTHKGIPMAASNLSVNYPVGAPDHISVKQCLLAILILALVATIFFVCTVVLAVRLSRKGHMYPVRNYSPTEMVCISSLLPDGGEGPSATANGGLSKAKSPGLTPEPREDREGDDLTLHSFLP
notes: whole, on cells; also called P-selectin receptor; PSGL-1 receptors in HL60 cells
B1: the binding result in test [1] and in test [2] was “binds” in each case.

These data come from patent US20100151573A1 (published 2010).
